Article PMC5330260 (Analytical biochemistry, 2017)

Target: Gαi1 (human, UniProt P63096 1-354)
Assay: split reporter

Sequence of Gαi1 (P63096 whole entry): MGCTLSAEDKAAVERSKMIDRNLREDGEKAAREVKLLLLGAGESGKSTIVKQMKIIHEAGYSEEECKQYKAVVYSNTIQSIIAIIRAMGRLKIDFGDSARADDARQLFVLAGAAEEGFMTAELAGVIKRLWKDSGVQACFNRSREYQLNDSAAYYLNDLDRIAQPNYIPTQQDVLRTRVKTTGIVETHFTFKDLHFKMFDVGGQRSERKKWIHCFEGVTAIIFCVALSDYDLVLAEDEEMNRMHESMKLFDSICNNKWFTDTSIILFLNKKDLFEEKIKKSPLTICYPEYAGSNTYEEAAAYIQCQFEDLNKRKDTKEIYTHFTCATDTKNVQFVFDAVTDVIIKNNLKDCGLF

B1: RGS17 RH domain (domain or fragment, human, UniProt Q9UGC6 73-201, looked up)
chain: PTAEEVLSWSQNFDKMMKAPAGRNLFREFLRTEYSEENLLFWLACEDLKKEQNKKVIEEKARMIYEDYISILSPKEVSLDSRVREVINRNLLDPNPHMYEDAQLQIYTLMHRDSFPRFLNSQIYKSFVE
net signal increase in response to AlF4, fold of that of RGS6: 2.8 fold
net signal increase in response to AlF4, fold of that of RGS7: 6.3 fold
